Reference: US20240376200A1 (Seagen, published 2024)
Where two headings read alike, the source gives them in different places.

T1: Coil 10 heavy chain peptide for CD studies (VelB L24I)
T1 construct: also called Coil 10 (L24I); L24I VelB variant
T1 peptide: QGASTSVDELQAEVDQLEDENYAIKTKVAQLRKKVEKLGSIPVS

T2: Coil 148 heavy chain peptide for CD studies (VelB L24I/V28L)
T2 construct: also called Coil 148 (L24I/V28L)
T2 peptide: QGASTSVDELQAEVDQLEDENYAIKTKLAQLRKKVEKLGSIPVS

T3: Vel heavy chain peptide for CD studies (VelB)
T3 construct: also called VelB (heavy chain) peptide; VelB1
T3 peptide: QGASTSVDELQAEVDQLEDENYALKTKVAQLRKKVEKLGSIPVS


Assays:
[1] = biological target: T1, Coil 10 heavy chain peptide for CD …; test: circular dichroism thermal denaturation at 222 nm, 150 µM total peptide
[2] = circular dichroism thermal denaturation at 222 nm
[3] = biological target: T2, Coil 148 heavy chain peptide for CD …; test: circular dichroism thermal denaturation at 222 nm, 150 µM total peptide
[4] = biological target: T3, Vel heavy chain peptide for CD studies …; test: as above
recombinant human CD47 [5] = biological target: T4, recombinant human CD47 (human, UniProt Q08722 19-139, limits assumed); test: saturation binding ELISA
T4 construct: also called recombinant CD47 antigen

recombinant human CD47 [6] = biological target: T4, recombinant human CD47; test: saturation binding ELISA; remark: listed apart in the source

Row | Binder | Tm (melting temperature of the light chain homodimer) [2] | EC50 (recombinant human CD47 [5]) | also measured
1 | QGASTTVAQLEEKVKTLRAENYEAKSEVQRLEEQVAQLGSIPVS (also called Coil 10 (L24A); L24A VelA variant) [Coil 10 light chain peptide for CD studies (VelA L24A)] | Tm=<20 °C |  | Tm (melting temperature of the heterodimer) [1]: 28.6 ° C.
2 | QGASTTVAQLEEKVKTLRAENYEAKSELQRLEEQVAQLGSIPVS (also called Coil 148 (L24A/V28L)) [Coil 148 light chain peptide for CD studies (VelA L24A/V28L)] | Tm=<20 °C |  | Tm (melting temperature of the heterodimer) [3]: 39.7 ° C.
3 | QGASTTVAQLEEKVKTLRAENYELKSEVQRLEEQVAQLGSIPVS (also called VelA (light chain) peptide; VelA1) [Vel light chain peptide for CD studies (VelA)] | Tm=35.7 °C |  | Tm (melting temperature of the heterodimer) [4]: 57.6 ° C.
4 | hB6H12.3 (unmasked anti-CD47 antibody) (antibody, V domains shown) VH: EVQLLESGGGLVQPGGSLRLSCAASGFTFSGYGMSWVRQAPGKRLEWVATITSGGTYTYYPDSVKGRFTISRDNSKNTLYLQMNSLRAEDTAIYFCARSLAGNAMDYWGQGTLVTVSS VL: EIVMTQSPDFQSVTPKEKVTLTCRASQTISDYLHWYQQKPDQSPKLLIKFASQSISGVPSRFSGSGSGSDFTLTINSLEAEDAATYYCQNGHGFPRTFGQGTKLEIKR |  | 2.55 nM | EC50 (recombinant human CD47 [6]): 2.55 nM
5 | Vel-IPV-hB6H12.3 (wild-type Vel mask, Coil 1) (antibody, V domains shown) VH: EVQLLESGGGLVQPGGSLRLSCAASGFTFSGYGMSWVRQAPGKRLEWVATITSGGTYTYYPDSVKGRFTISRDNSKNTLYLQMNSLRAEDTAIYFCARSLAGNAMDYWGQGTLVTVSS VL: EIVMTQSPDFQSVTPKEKVTLTCRASQTISDYLHWYQQKPDQSPKLLIKFASQSISGVPSRFSGSGSGSDFTLTINSLEAEDAATYYCQNGHGFPRTFGQGTKLEIK |  | 494 nM | EC50 fold change from hB6H12.3 (recombinant human CD47 [5]): 194 fold
